# Patent US12577303B2
# Where two headings read alike, the source gives them in different places.
# Assays:
# [1] = target: human Sirpα-V1-his (human) (UniProt P78324); assay: blocking ELISA: hSirpα-V1-his, hCD47-Fc (dimer)
# [2] = target: human Sirpα-V1-hFc (human) (UniProt P78324); assay: blocking ELISA: hSirpα-V1-hFc (dimer), hCD47-his
# [3] = target: human Sirpα-V2-his (human); assay: ELISA, subclone supernatant
# [4] = target: human Sirpα-V1 recombinant protein (human) (UniProt P78324); assay: ELISA, subclone supernatant
# [5] = target: human Sirpα-V1-his (human) (UniProt P78324); assay: blocking ELISA: hSirpα to hCD47 (dimer)
# [6] = target: human Sirpα-V2-his (human); assay: ELISA
# [7] = target: Cyno Sirpα L932 (cynomolgus); assay: ELISA
# Chain of Cyno Sirpα L932 (cynomolgus) (chain, as listed by the source): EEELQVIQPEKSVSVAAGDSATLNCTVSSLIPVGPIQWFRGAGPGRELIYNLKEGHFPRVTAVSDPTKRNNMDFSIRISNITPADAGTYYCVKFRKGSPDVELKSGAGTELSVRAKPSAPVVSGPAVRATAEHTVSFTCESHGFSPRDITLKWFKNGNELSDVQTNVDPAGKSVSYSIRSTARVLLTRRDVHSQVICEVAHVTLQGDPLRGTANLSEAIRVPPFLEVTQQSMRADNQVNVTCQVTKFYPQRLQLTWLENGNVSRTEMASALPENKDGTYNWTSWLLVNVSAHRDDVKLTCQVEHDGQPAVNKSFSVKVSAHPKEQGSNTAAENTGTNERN
# [8] = target: Cyno Sirpα L936 (cynomolgus); assay: ELISA
# Chain of Cyno Sirpα L936 (cynomolgus) (chain, as listed by the source): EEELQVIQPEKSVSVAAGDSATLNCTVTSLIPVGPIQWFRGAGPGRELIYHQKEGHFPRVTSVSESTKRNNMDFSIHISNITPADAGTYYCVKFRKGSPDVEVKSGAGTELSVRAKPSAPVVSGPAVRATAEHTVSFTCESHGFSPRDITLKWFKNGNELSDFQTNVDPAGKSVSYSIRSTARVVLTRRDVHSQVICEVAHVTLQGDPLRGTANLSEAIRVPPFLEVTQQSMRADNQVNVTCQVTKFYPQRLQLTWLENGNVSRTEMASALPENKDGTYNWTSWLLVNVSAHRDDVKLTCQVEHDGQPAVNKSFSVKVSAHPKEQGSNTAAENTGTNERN
# [9] = target: human Sirpα-V1 recombinant protein (human) (UniProt P78324); assay: ELISA
# [10] = target: Cyno Sirpα L937 (cynomolgus); assay: ELISA
# Chain of Cyno Sirpα L937 (cynomolgus) (chain, as listed by the source): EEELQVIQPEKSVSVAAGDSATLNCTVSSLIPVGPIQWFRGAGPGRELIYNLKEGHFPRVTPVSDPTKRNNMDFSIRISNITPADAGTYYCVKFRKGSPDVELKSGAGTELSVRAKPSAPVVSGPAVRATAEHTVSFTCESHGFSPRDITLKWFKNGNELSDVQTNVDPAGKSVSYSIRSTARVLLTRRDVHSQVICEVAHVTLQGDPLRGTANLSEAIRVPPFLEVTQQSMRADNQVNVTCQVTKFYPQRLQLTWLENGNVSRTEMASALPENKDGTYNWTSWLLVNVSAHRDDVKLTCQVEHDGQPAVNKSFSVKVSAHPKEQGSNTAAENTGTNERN
# [11] = target: Cyno Sirpα L933 (cynomolgus); assay: ELISA
# Chain of Cyno Sirpα L933 (cynomolgus) (chain, as listed by the source): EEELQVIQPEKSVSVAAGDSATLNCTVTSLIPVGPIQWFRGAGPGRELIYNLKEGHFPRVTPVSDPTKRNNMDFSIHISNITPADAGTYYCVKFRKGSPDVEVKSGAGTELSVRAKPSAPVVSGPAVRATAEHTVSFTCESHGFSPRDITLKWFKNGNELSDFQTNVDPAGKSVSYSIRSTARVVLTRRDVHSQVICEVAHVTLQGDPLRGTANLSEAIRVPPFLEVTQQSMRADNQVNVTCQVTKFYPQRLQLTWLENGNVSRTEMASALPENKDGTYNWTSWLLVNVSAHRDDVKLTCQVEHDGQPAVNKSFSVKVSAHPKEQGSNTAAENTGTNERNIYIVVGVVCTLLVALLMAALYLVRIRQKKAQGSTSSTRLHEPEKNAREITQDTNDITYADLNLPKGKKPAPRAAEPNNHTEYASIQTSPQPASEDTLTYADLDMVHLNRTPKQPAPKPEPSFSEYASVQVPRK
# [12] = target: human Sirpα-V1-his (human) (UniProt P78324); assay: blocking ELISA: hSirpα to hCD47 (dimer); remark: listed apart in the source
# [13] = target: human Sirpα-V1-hFc (human) (UniProt P78324); assay: blocking ELISA: hSirpα (dimer) to hCD47
# [14] = target: human Sirpα-V1 recombinant protein (human) (UniProt P78324); assay: ELISA; remark: listed apart in the source
# [15] = target: human Sirpα-V1-hFc (human) (UniProt P78324); assay: blocking ELISA: hSirpα (dimer) to hCD47; remark: listed apart in the source
binder,measurement,setting,value
"14H6E5B5C8G2 (antibody, V domains shown) VH: QVHLQQPGAELVKPGASVKLSCKASGYNFNIYWINWVKQRPGQGLEWIGNIYPSSISTNYNEKFKTKATLTVDKSSNTVYMQFSSLTSEDSAVYYCARSEGTYYGGRYEGDWFGYWGQGTLVTVSA VL: DIQMTQTTSSLSASLGDRVTISCRASQDIRNYLNWYQQKPDGTVKLLIYFTSTLHSGVPSRFSGSGSGTDYSLTISNLEQEDIATYFCQQGNTLPWTFGGGTKLEIK",ELISA value of the blocking assay,[1],0.42
same,ELISA value of the blocking assay,[2],0.069
same,"ELISA value, activity of binding",[3],1.25
same,"ELISA value, activity of binding",[4],1.27
"human-murine chimeric antibody mab14c (antibody, V domains shown) VH: QVHLQQPGAELVKPGASVKLSCKASGYNFNIYWINWVKQRPGQGLEWIGNIYPSSISTNYNEKFKTKATLTVDKSSNTVYMQFSSLTSEDSAVYYCARSEGTYYGGRYEGDWFGYWGQGTLVTVSA VL: DIQMTQTTSSLSASLGDRVTISCRASQDIRNYLNWYQQKPDGTVKLLIYFTSTLHSGVPSRFSGSGSGTDYSLTISNLEQEDIATYFCQQGNTLPWTFGGGTKLEIKR",IC50,[5],5.54 nM
same,EC50,[6],0.14 nM
same,EC50,[7],0.1 nM
same,EC50,[8],0.099 nM
same,EC50,[9],0.16 nM
same,EC50,[10],0.099 nM
same,EC50,[11],0.14 nM
same,IC50,[12],9.98 nM
same,IC50,[13],5.48 nM
same,EC50,[14],0.093 nM
same,IC50,[15],5.7 nM
"mab14-h2 (antibody, V domains shown) VH: QVQLVQSGAEVKKPGASVKVSCKASGYNFNIYWINWVKQAPGQGLEWIGNIYPSSISTNYNEKFKTKATLTVDKSTSTVYMEFSSLRSEDTAVYYCARSEGTYYGGRYEGDWFGYWGQGTLVTVSS VL: DIQMTQSPSSLSASVGDRVTITCRASQDIRNYLNWYQQKPGGTVKLLIYFTSTLHSGVPSRFSGSGSGTDYTLTISSLQPEDFATYYCQQGNTLPWTFGGGTKVEIKR",EC50,[14],0.073 nM
"mab14-h4 (antibody, V domains shown) VH: QVQLVQSGAEVKKPGASVKVSCKASGYNFNIYWINWVRQAPGQGLEWIGNIYPSSISTNYNEKFKTRATLTVDTSTSTVYMELSSLRSEDTAVYYCARSEGTYYGGRYEGDWFGYWGQGTLVTVSS VL: DIQMTQSPSSLSASVGDRVTITCRASQDIRNYLNWYQQKPGGTVKLLIYFTSTLHSGVPSRFSGSGSGTDYTLTISSLQPEDFATYYCQQGNTLPWTFGGGTKVEIKR",EC50,[14],0.088 nM
"mab14-h7 (antibody, V domains shown) VH: QVQLVQSGAEVKKPGASVKVSCKASGYNFNIYWINWVKQAPGQGLEWIGNIYPSSISTNYNEKFKTKATLTVDTSTSTVYMELSSLRSEDTAVYYCARSEGTYYGGRYEGDWFGYWGQGTLVTVSS VL: DIQMTQSPSSLSASVGDRVTITCRASQDIRNYLNWYQQKPGGTVKLLIYFTSTLHSGVPSRFSGSGSGTDYTLTISSLQPEDFATYYCQQGNTLPWTFGGGTKVEIKR",EC50,[14],0.081 nM
"mab14-h5 (antibody, V domains shown) VH: QVQLVQSGAEVKKPGASVKVSCKASGYNFNIYWINWVRQAPGQGLEWIGNIYPSSISTNYNEKFKTRATLTVDKSTSTVYMELSSLRSEDTAVYYCARSEGTYYGGRYEGDWFGYWGQGTLVTVSS VL: DIQMTQSPSSLSASVGDRVTITCRASQDIRNYLNWYQQKPGGTVKLLIYFTSTLHSGVPSRFSGSGSGTDYTLTISSLQPEDFATYYCQQGNTLPWTFGGGTKVEIKR",IC50,[12],8.47 nM
same,IC50,[13],8.99 nM
same,EC50,[14],0.061 nM
"mab14-h3 (antibody, V domains shown) VH: QVQLVQSGAEVKKPGASVKVSCKASGYNFNIYWINWVRQAPGQGLEWMGNIYPSSISTNYNEKFKTRATLTVDTSTSTVYMELSSLRSEDTAVYYCARSEGTYYGGRYEGDWFGYWGQGTLVTVSS VL: DIQMTQSPSSLSASVGDRVTITCRASQDIRNYLNWYQQKPGGTVKLLIYFTSTLHSGVPSRFSGSGSGTDYTLTISSLQPEDFATYYCQQGNTLPWTFGGGTKVEIKR",EC50,[14],0.103 nM
"mab14-h6 (antibody, V domains shown) VH: QVQLVQSGAEVKKPGASVKVSCKASGYNFNIYWINWVKQAPGQGLEWIGNIYPSSISTNYNEKFKTRATLTVDTSTSTVYMELSSLRSEDTAVYYCARSEGTYYGGRYEGDWFGYWGQGTLVTVSS VL: DIQMTQSPSSLSASVGDRVTITCRASQDIRNYLNWYQQKPGGTVKLLIYFTSTLHSGVPSRFSGSGSGTDYTLTISSLQPEDFATYYCQQGNTLPWTFGGGTKVEIKR",EC50,[14],0.095 nM
